Measured values taken from US10927354B2, “D-type amino acid dehydrogenase” (Kureha Corporation, priority 2017, dated 2021).

How the values were obtained:
[1] = system: D-type amino acid dehydrogenase derived from N. massiliense; experiment: Kinetic analysis of D-type amino acid dehydrogenase; assay type: biochemical, Numidum massiliense; conditions: meso-diaminopimelic acid as substrate, NADP^+ or NAD^+ as coenzyme; values for meso-diaminopimelic acid determined using NADP^+
Experimental: The absorbance was measured by an ultraviolet-visible spectrophotometer UV-1800 (available from SHIMADZU). The specific activity of the enzyme was calculated from the concentration of the enzyme used and enzyme dilution rate using the obtained absorbance change and the following equation. […] A turnover number (kcat) as a reaction rate parameter, a Michaelis constant (Km) value, and catalytic efficiency (kcat/Km) were determined with Igor Pro ver. 3.14 (available from WaveMetrics) based on Michaelis-Menten equation after the initial velocities were plotted against different substrates and coenzyme concentrations.

[2] = Optimum pH in catalytic reaction (deamination of meso-diaminopimelic acid); assay type: biochemical; conditions: deamination of 10 mM meso-diaminopimelic acid, 1.25 mM NADP^+, 50° C.
Experimental: The optimum pH was evaluated for the D-type amino acid dehydrogenase obtained in Example 2. The activity of the enzyme was measured by determining an increase in absorbance at wavelength of 340 nm of NADPH produced by the catalytic reaction of the enzyme.
The absorbance was measured by an ultraviolet-visible spectrophotometer UV-1800 (available from SHIMADZU). The specific activity of the enzyme was calculated from the concentration of the enzyme used and enzyme dilution rate using the obtained absorbance change and the following equation.

[3] = Optimum temperature in catalytic reaction; assay type: biochemical; conditions: deamination of meso-diaminopimelic acid, NADP^+, 50-80° C. tested
Experimental: The measurement results are illustrated in FIG. 6. From the results, it was confirmed that the optimum temperature for activity was about 75° C.

[4] = Thermal stability of D-type amino acid dehydrogenase; assay type: physicochemical; conditions: 60° C., 30 minutes, 10 mM phosphate buffer pH 7.2; relative to treatment at 40° C. as 100%
Experimental: The D-type amino acid dehydrogenase purified in Example 2 was heat-treated in 10 mM phosphate buffer solution (pH 7.2) under various temperature conditions (40° C., 45° C., 50° C., 55° C., 60° C., 65° C., or 70° C.) for 30 minutes to confirm residual activity after being left to stand for 5 minutes on ice. […] The residual activity after treatment at other temperatures was calculated as a relative activity with treatment at 40° C. as 100%.

[5] = pH stability of D-type amino acid dehydrogenase; assay type: physicochemical; conditions: pH 5.5 to 9.5, 50° C., 30 minutes; relative to pH 5.5 as 100%
Experimental: The D-type amino acid dehydrogenase purified in Example 2 was subjected to a heat treatment at 50° C., in 100 mM of each buffer solution (pH 4.0, 4.5, 5.0, 5.5, 6.0, 6.5, 7.0, 7.5, 8.0, 8.5, 9.0, 9.5, 10.0, 10.5, 11.0, 11.3, 12.0, 12.3, or 13.0) for 30 minutes to confirm residual activity after being left to stand for 5 minutes on ice. […] The residual activity after treatment at other pH was calculated as a relative activity with treatment at pH 5.5 as 100%.

[6] = Coenzyme dependence by activity-staining; assay type: biochemical; conditions: 10 mM meso-diaminopimelic acid, 1.25 mM coenzyme, pH 8.0, 50° C., 30 minutes
Experimental: The coenzyme dependence was evaluated for the D-type amino acid dehydrogenase obtained in Example 2 above. The coenzyme dependence of the enzyme was evaluated by an activity-staining method due to a catalytic reaction of the enzyme.
More specifically, an appropriate amount of enzyme solution was subjected to disc gel electrophoresis. […] The 2-(4-iodophenyl)-3-(4-nitrophenyl)-5-phenyl-2H-tetrazolium chloride in the reaction solution is reduced to form a […] formazan. A reaction formula is indicated below. In the following reaction formula, the D-type amino acid dehydrogenase is referred to as “meso-DAPDH”.

[7] = Activity-staining with D-alanine or L-alanine; assay type: biochemical; conditions: 10 mM D-alanine or L-alanine, 1.25 mM NADP^+, pH 8.0, 50° C., 30 minutes
Experimental: The activity was evaluated for the D-type amino acid dehydrogenase obtained in Example 2 above. The activity of the enzyme was evaluated by an activity-staining method due to a catalytic reaction of the enzyme. More specifically, an appropriate amount of enzyme solution was subjected to disc gel electrophoresis. […] 2-(4-iodophenyl)-3-(4-nitrophenyl)-5-phenyl-2H-tetrazolium chloride in the reaction solution is reduced to form a […] formazan. A reaction formula is indicated below. In the following reaction formula, the D-type amino acid dehydrogenase is referred to as “meso-DAPDH”.

Row | coenzyme dependence (activity-staining) [6] | Molecule | kcat [1] [s⁻¹] | optimum pH for activity [2] | optimum temperature for activity [3] | residual activity after heat treatment [4] | residual activity after pH treatment [5] [%] | D/L selectivity (activity-staining) [7]
1 |  | NC(=O)c1ccc[n+]([C@@H]2O[C@H](COP(=O)([O-])OP(=O)(O)OC[C@H]3O[C@@H](n4cnc5c(N)ncnc54)[C@H](O)[C@@H]3O)[C@@H](O)[C@H]2O)c1 [NAD^1] | 8930 |  |  |  |  | 
2 | utilized both NAD^+ and NADP^+ coenzymes | D-type amino acid dehydrogenase: D-type amino acid dehydrogenase derived from N. massiliense, amino acid sequence SEQ ID NO: 2, hexamer (protein, hexamer; Numidum massiliense) MSNVYNVAVVGYGNIGKYAVQAIDAAPDMQLAGVVRRASSAAKDTPPELVGRRVVHDIRDLEQVDVAILAAPTRTIPAYARDVLSLGIHTVDSYDIHGELANLRRELDDVSKKNDSVAIISAGWDPGTDSMIRGMLEFMAPGGLTYTNFGPGMSMGHSVAVKAIDGVKDALSLTIPLGTSIHRRMVYVELEAGADFETVKKAILADPYFVNDETHVTQVPNVQQLVNVGHGVSMERRGVSGATHNQLFTFEMRINNPALTSQVLVAAARATFKQQPGAYTMIEVPVIDYLPGDRDDIIRRLV |  | 10.5 | about 75 °C | about 76% | ≥ 90 | selectively acts on the D-amino acid
